Experimental data taken from patent publication US20260263521A1, “ANTI-CD200R1 ANTIBODY AND USE THEREOF” (AIMED BIO INC., priority 2023, published 2026).
Changes are numbered by the printed parent chain.

B1: P001009: phage display anti-CD200R1 clone; VH SEQ ID NO: 79, VL SEQ ID NO: 94 (antibody, V domains shown)
VH: EVQLLESGGGLVQPGGSLRLSCAASGFTFSSYDMSWVRQAPGKGLEWVSWISHGGGSIYYADSVKGRFTISRDNSKNTLYLQMNSLRAEDTAVYYCARDAPAYSAPLFDYWGQGTLVTVSS
VL: QSVLTQPPSASGTPGQRVTISCSGSSSNIGNNAVNWYQQLPGTAPKLLIYYDSNRPSGVPDRFSGSKSGTSASLAISGLRSEDEADYYCAAWDDSLSGYVFGGGTKLTVL
B2: P001009v1: P001009 variant, LC S52 and LC S94 substituted with K and R; VH SEQ ID NO: 79 (antibody, V domains shown)
VH: B1 VH
VL: B1 VL with S53K, S95R

Columns and labels:
cynomolgus CD200R1 = assay: SPR binding kinetics, cynomolgus CD200R1; details: cynomolgus CD200R1-his captured on anti-His CM5 chip, 1:1 Langmuir fit
Description: The CD200R1-specific binding ability of the antibodies (P001009 wt, P001009 v1, P001009 v2, P001009 v3, P001009 v4) selected in Example 14 was analyzed using surface plasma resonance (SPR). For the experiment, 30 μg/mL of an anti-histidine antibody was conjugated to a CM5 biacore chip via an amine bond while allowing to flow at 10 μl/min (10,000 RU). Then, 0.25 μg/mL of human or cynomolgus CD200R1 with dual His-tags was captured onto the completed chip for 60 seconds, and the binding ability of each antibody was analyzed. All experiments were performed by association of antibodies for 120 seconds and dissociation of antibodies for 600 seconds. The resulting graphs were fitted using a 1:1 Langmuir binding kinetic model (FIG. 16), and the kinetics of each antibody were calculated.

[1] = system: TNF-α in U937-CD200R1 cells; assay: TNF-α suppression in LPS-treated U937-CD200R1 cells (AlphaLISA); format: cell-based, human; details: for TNF-α: LPS-treated U937-CD200R1 cells, 24 h
Description: To determine the binding ability of the candidates to U937-CD200R1-overexpressing cell lines and verify the efficacy thereof, the anti-inflammatory effect of anti-CD200R1 antibodies was analyzed. First, 5×10^6 U937-CD200R1 cells were added to 12 ml of medium, treated with 30 ng/ml of Phorbol 12-myristate 13-acetate (Sigma Aldrich, #P1585), and reacted at 37° C. in 5% CO2 for 24 hours. After reaction, the medium was replaced with RPMI 1640 medium containing only 10% heat-inactivated FBS, and 5×10^6 cells were maintained at 37° C. in 5% CO2 for 24 hours.
Cells were seeded on duplicate onto 96-well round-bottom plates (SPL, #34296) at 1×10^5 cells/50 μl/well. P001009 WT, P001009v1, and the previously published CD200R antibody LY3454738 (US 2020/0087395, I-4P, Eli Lilly) as a positive control were used in this experiment. The drug was serially diluted 10-fold from a maximum concentration of 100 nM and treated to the cells at concentrations of 10 nM, 1 nM, […], respectively. Additional cells were treated with 100 nM of hIgG4 kappa isotype control (Crownvivo, #C0004) as a negative control. Untreated cells were seeded in the same amount of medium (RPMI 1640 containing 10% heat-inactivated FBS) and incubated at 37° C., 5% CO2 for 1 hour. To induce an inflammatory response in drug-treated cells, each well was treated with 10 μl of lipopolysaccharide from Salmonella typhosa (Sigma Aldrich, #L7895) at a concentration of 1 μg/ml. One well was left untreated to assess the induction of inflammatory cytokines. After thorough mixing, the cells were incubated at 37° C. and 5% CO2 for 24 hours.
After centrifugation at 1100 g for 2 minutes, images of the pellets before and after LPS treatment were captured using a microscope (Carl Zeiss, AXIO VERT.A1). After LPS treatment, the pellet appeared as scattered debris (FIG. 18B) rather than uniform spheroids (FIG. 18A). This was observed under a microscope. The supernatant was collected and analyzed for inflammatory cytokines such as TNF-α and IL-6 using an EnVision® multimode plate reader (PerkinElmer). A bead-based cytokine assay was performed using the AlphaLISA immunoassay on the EnVision® instrument. TNF-α(human) AlphaLISA Detection Kit, 500 assay points (PerkinElmer, #AL208C) was used for TNF-α, and the IL-6 (human) AlphaLISA Detection Kit, 500 assay points (PerkinElmer, #AL223C) was used for IL-6. Cytokine levels were determined depending on the concentration of each antibody.

| Molecule | Ka (cynomolgus CD200R1) | TNF-α ([1]; log [Ab] (M) −7) | TNF-α ([1]; log [Ab] (M) −8) | TNF-α ([1]; log [Ab] (M) −9) | TNF-α ([1]; log [Ab] (M) −10) | TNF-α ([1]; log [Ab] (M) −11) | TNF-α ([1]; log [Ab] (M) −12) | TNF-α level ([1]; low nanomolar (nM) drug concentrations) |
| --- | --- | --- | --- | --- | --- | --- | --- | --- |
| B1 | 5.63e+06 M⁻¹ s⁻¹ | 619.6 ± 12.3 pg/mL | 1259.1 ± 29.9 pg/mL | 2035.8 ± 108.9 pg/mL | 4148.8 ± 208.7 pg/mL | 5038.4 ± 7.7 pg/mL | 5128.6 ± 667.6 pg/mL | – |
| B2 | 5.23e+06 M⁻¹ s⁻¹ | 146.7 ± 23.8 pg/mL | 609.5 ± 25.6 pg/mL | 1039.8 ± 54.7 pg/mL | 3352.5 ± 189.8 pg/mL | 4753.2 ± 96.1 pg/mL | 4082.1 ± 964.6 pg/mL | maintained low inflammatory cytokine levels |
